According to patent US20250011397A1 (HOSPITAL FOR SICK CHILDREN, published 2025):
“And” between values parts separate entries of the source, which are not always exact repeats. Equal entries are not always repeated. Where two headings read alike, the source gives them in different places.

T1: mouse FcRn (mouse, UniProt Q61559 22-297; P01887 21-119)
T1 construct: also called mFcRn
T1 sequence (looked up) 1: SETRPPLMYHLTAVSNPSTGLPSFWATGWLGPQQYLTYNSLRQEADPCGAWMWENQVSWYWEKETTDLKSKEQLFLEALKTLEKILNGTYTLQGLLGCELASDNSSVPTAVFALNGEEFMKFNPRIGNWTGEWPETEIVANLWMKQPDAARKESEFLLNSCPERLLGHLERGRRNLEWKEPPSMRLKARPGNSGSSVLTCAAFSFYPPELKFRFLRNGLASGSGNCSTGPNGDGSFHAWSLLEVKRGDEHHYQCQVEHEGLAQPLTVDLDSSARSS
T1 sequence (looked up) 2: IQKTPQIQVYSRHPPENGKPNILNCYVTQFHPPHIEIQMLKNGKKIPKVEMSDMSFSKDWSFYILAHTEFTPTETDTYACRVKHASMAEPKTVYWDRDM

T2: mouse FcγRI (mouse, UniProt P26151 25-297)
T2 sequence (looked up): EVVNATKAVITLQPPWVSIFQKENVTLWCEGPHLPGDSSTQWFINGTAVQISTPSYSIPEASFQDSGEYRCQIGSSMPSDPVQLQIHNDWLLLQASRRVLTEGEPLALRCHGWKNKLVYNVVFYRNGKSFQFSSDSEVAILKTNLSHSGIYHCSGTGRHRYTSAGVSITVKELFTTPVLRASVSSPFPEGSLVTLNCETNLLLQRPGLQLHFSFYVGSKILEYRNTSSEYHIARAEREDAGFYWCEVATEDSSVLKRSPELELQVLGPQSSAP


Key:
[1] = target: T3, SARS-CoV-2 Spike on HIV-based pseudotyped virus (Spike plasmid BEI NR52310) (SARS-CoV-2, UniProt P0DTC2 14-1273); assay: cell-based or functional assay
[2] = target: T3, SARS-CoV-2 Spike on HIV-based …; assay: cell-based or functional assay; remark: listed apart in the source
[3] = target: Spike of authentic SARS-CoV-2/SB2-P4-PB virus (SARS-CoV-2, UniProt P0DTC2 14-1273); assay: cell-based or functional assay
[4] = target: T3, SARS-CoV-2 Spike on HIV-based …; assay: cell-based or functional assay; remark: listed apart in the source
[5] = target: T1, mouse FcRn; assay: pH 5.6
[6] = target: T1, mouse FcRn
[7] = target: T2, mouse FcγRI

Row | Binder | Median IC50 (PsV neutralization) [4] | IC50 SARS-CoV2 PsV (µg/mL), IgG [2] | IC50 SARS-CoV2/SB2-P4-PB (µg/mL), IgG [3] | other results
1 | 4A8 IgG (antibody, V domains shown, also called IgG 4A8) VH: EVQLVESGAEVKKPGASVKVSCKVSGYTLTELSMHWVRQAPGKGLEWMGGFDPEDGETMYAQKFQGRVTMTEDTSTDTAYMELSSLRSEDTAVYYCATSTAVAGTPDLFDYYYGMDVWGQGTTVTVSS VL: EIVMTQSPLSSPVTLGQPASISCRSSQSLVHSDGNTYLSWLQQRPGQPPRLLIYKISNRFSGVPDRFSGSGAGTDFTLKISRVEAEDVGVYYCTQATQFPYTFGQGTKVDIK |  |  |  | Median IC50 (PsV neutralization) [1]: > 100 µg/mL and > 0.66 µM
2 | MB 324 (other) heavy: QVQLVQSGAEVKKPGASVKVSCKASGGTFNNYGISWVRQAPGQGLEWMGWMNPNSGNTGYAQKFQGRVTMTRDTSTSTVYMELSSLRSEDTAVYYCARVGDYGDYIVSPFDLWGRGTLVTVSSASTKGPSVFPLAPSSKSTSGGTAALGCLVKDYFPEPVTVSWNSGALTSGVHTFPAVLQSSGLYSLSSVVTVPSSSLGTQTYICNVNHKPSNTKVDKKVEPKSC light: not shown | 0.0009 µg/mL and 0.39 pM |  |  | IC50 SARS-CoV2 PsV (µg/mL), MB [2]: 0.0009 µg/mL; IC50 SARS-CoV2/SB2-P4-PB (µg/mL), MB [3]: 0.024 µg/mL
3 | mAb 46 (antibody, V domains shown, also called IgG 46; antibody 46) VH: EVQLLESGGGLVQPGRSLRLSCAASGFTFSSYAMSWVRQAPGKGLEWVSTIYSGGSTYYADSVKGRFTISRDNSKNTLYLQMNSLRAEDTAVYYCARGDSRDAFDIWGQGTMVTVSS VL: DIQMTQSPSSLSASVGDRVTITCRASQSISSWLAWYQQKPGKAPKLLIYDASNLETGVPSRFSGSGSGTDFTLTISSLQPEDFATYYCQQSYSTPFTFGPGTKVDIKR | 2.1 µg/mL and 14 nM | 2.1 µg/mL | 19 µg/mL | 
4 | mAb 324 (antibody, V domains shown, also called IgG 324) VH: QVQLVQSGAEVKKPGASVKVSCKASGGTFNNYGISWVRQAPGQGLEWMGWMNPNSGNTGYAQKFQGRVTMTRDTSTSTVYMELSSLRSEDTAVYYCARVGDYGDYIVSPFDLWGRGTLVTVSS VL: DIQMTQSPSSLSASVGDRVTITCRASQSITTYLNWYQQKPGKAPKLLIYDASNLETGVPSRFSGSGSGTDFTLTISSLQPEDFATYYCQQSYSTPPTFGQGTKVEIKR | 0.78 µg/mL and 5.2 nM | 0.78 µg/mL | 21 µg/mL | 
5 | mAb 236 (antibody, V domains shown, also called IgG 236) VH: QVQLVQSGAEVKKPGASVKVSCKASGGTFTSYGINWVRQAPGQGLEWMGWMNPNSGNTGYAQKFQGRVTMTRDTSTSTVYMELSSLRSEDTAVYYCASRGIQLLPRGMDVWGQGTTVTVSS VL: not shown | 0.057 µg/mL and 0.38 nM | 0.057 µg/mL | 5.5 µg/mL | 
6 | mAb 52 (antibody, V domains shown, also called IgG 52; antibody 52) VH: QVQLVQSGAEVKKPGSSVKVSCKASGYTFTSYGISWVRQAPGQGLEWMGGIIPMFGTTNYAQKFQGRVTITADKSTSTAYMELSSLRSEDTAVYYCARDRGDTIDYWGQGTLVTVSS VL: DIQMTQSPSSLSASVGDRVTITCRASQGISNNLNWYQQKPGKAPKLLIYAASSLESGVPSRFSGSGSGTDFTLTISSLQPEDFATYYCQQGNGFPLTFGPGTKVDIKR | 0.61 µg/mL and 4.1 nM | 0.55 µg/mL | 6.2 µg/mL | 
7 | HD37 (anti-hCD19) mouse IgG2a, parental IgG (antibody, also called mIgG2a control; HD37 single chain IgG2a) DILLTQTPASLAVSLGQRATISCKASQSVDYDGDSYLNWYQQIPGQPPKLLIYDASNLVSGIPPRFSGSGSGTDFTLNIHPVEKVDAATYHCQQSTEDPWTFGGGTKLEIKRADAAPTVSIFPPSSEQLTSGGASVVCFLNNFYPKDINVKWKIDGSERQNGVLNSWTDQDSKDSTYSMSSTLTLTKDEYERHNSYTCEATHKTSTSPIVKSFNRNECGGSSGSGSGSTGTSSSGTGTSAGTTGTSASTSGSGSGGGGGSGGGGSAGGTATAGASSGSGSSGSSSSGGTGTGQVQLQQSGAELVRPGSSVKISCKASGYAFSSYWMNWVKQRPGQGLEWIGQIWPGDGDTNYNGKFKGKATLTADESSSTAYMQLSSLASEDSAVYFCARRETTTVGRYYYAMDYWGQGTSVTVSSSQSFPNVFPLVSCESPLSDKNLVAMGCLARDFLPSTISFTWNYQNNTEVIQGIRTFPTLRTGGKYLATSQVLLSPKSILEGSDEYLVCKIHYGGKNRDLHVPIPSKPCPPCKCPAPNLLGGPSVFIFPPKIKDVLMISLSPIVTCVVVDVSEDDPDVQISWFVNNVEVHTAQTQTHREDYNSTLRVVSALPIQHQDWMSGKEFKCKVNNKDLPAPIERTISKPKGSVRAPQVYVLPPPEEEMTKKQVTLTCMVTDFMPEDIYVEWTNNGKTELNYKNTEPVLDSDGSYFMYSKLRVEKKNWVERNSYSCSVVHEGLHNHHTTKSFSRTPGK |  |  |  | Kd [5]: 1.06 nM; koff [5]: 0.000123 s⁻¹; kon [6]: 116000 M⁻¹ s⁻¹; Kd [7]: 8.63 nM; koff [7]: 0.000451 s⁻¹; kon [7]: 52200 M⁻¹ s⁻¹
